Assay results from the nanobody polyreactivity screen of Harvey et al. (2022).

Experiment: yeast display, Sf9 membrane polyspecificity reagent, FACS + sequencing; frameworks hold sequencing errors
Method in brief: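 Galactose induction of a Saccharomyces cerevisiae BJ5465 synthetic nanobody display library ran 36–48 hours. The cells were then stained for 1 hour at 4 °C with 10% biotinylated, detergent-solubilized Sf9 membrane reagent, pulled down on streptavidin microbeads and FACS-sorted into low and high (top ~1%) gates on expression and reagent-binding fluorescence. Labels for polyreactivity follow the gate of origin.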

QVQLVESGGCLVQAGGSLRLSCAASGLIFYRYAMGWYRQAPGKERELVAAISWSGGTTYYADSVKGRFTISRDNAKNSVYLQMNSLKPEDTAVYYCAADAVYYHFDYWGQGTQVTVSS
polyreactivity (PSR sort gate): high polyreactivity

QVQLVESGGGLVQAGGSLRLSCAASGFTLQSNAMGWFRQATGKERELVAAISFRGGSTYYADSVKGRFTISRDNAKNTVYLQMNSLKPEDTAVYYCAADFYFHSAYNYGYWGQGTQVTVSS
polyreactivity (PSR sort gate): low polyreactivity

QVQLVESGGGLVQAGGSLRLSCAASGRIFIYNAMGWYRQAPGKEREFVAAISSSGGSTYYADSVKGRFTISRDNAKNTVYLQMNSLKPEDTAVYYCAAGGWPYSGGWFFQPNYDYWGQGTQVTVSS
polyreactivity (PSR sort gate): low polyreactivity

QVQLVESGGGLVQAGGSLRLSCAASGFTFVTNAMGWYRQAPGKERELVAAISSSGARTYYADSVKGRFTISRDNAKNTVYLQMNSLKPEDTAVYYCAVYYYDFTSTEYGYWGQGTQVTVSS
polyreactivity (PSR sort gate): high polyreactivity

QVQLVESGGGLVQAGGSLRLSCAASGSIFYKYMGWNRQAPGKERELVAAISWSGGRTYYADSVKGRFTISRDNAKNTVYLQMNSLKPEDTAVYYCNRVVLWRIGDKAFEYWGQGTQVTVSS
polyreactivity (PSR sort gate): high polyreactivity

QVQLVESGGGLVQAGGSLRLSCAASGIIFRANAMGWYRQAPGKERELVAAISGRGSSTTYADSVKGRFTISRDNAKNTVYLQMNSLKPEDTAVYYCAADTWYPGYYAYDYWGQGTQVTVSS
polyreactivity (PSR sort gate): high polyreactivity

QVQLVESGGGLVQAGGSLRLSCAASGFIFYYAMGWYRPAPGKERELVAGITESDGSTNYADSVKGRFTISRDNAKNTVYLQMNSLKPEDTAVYYCAKDASSLRFDYWGQGTQVTVSS
polyreactivity (PSR sort gate): low polyreactivity

QVQLVESGGGLVQAGGSLRLSCAASGRTFRGNAMRWYRQAPGKERELVAAIRWNGGSTYYADSVKGRFTISRDNAKNTVYLQMNSLKPEDSAVYYCAVSYWYSRYDYWGQGTQVTVSS
polyreactivity (PSR sort gate): high polyreactivity

QVQLVESGGGLVQAGGSLRLSCAASGFTFDANAMGWYRQAPGKERELVAAITRFGSTFYADSVKGRFTISRDNAKNTVYLQMNSLKPEDTAVYYCNAARDHVSGYDYWGQGTQVTVSS
polyreactivity (PSR sort gate): low polyreactivity

QGQLVESGGGLGQEGCSLRLSCAASGNTFIINAMGWYRQARGNERELVAAITSGGSTNYADSVKGRFTISGDNAKNTVYLQMNSLKPEDTAVYDCAARTRLYYYKVRKYRMDYWGQGTQVTVSS
polyreactivity (PSR sort gate): low polyreactivity

QVQLVESGGGLVQAGGSLRLSCAASGRIFTAYYAMGWYRQAPGKERELVASISSSGTYTYADSVKGRFTISRDNAKNTVYLQMNSLKPEDTAVYYCATRKLRTRRYDYGYCGQGTQVTVSS
polyreactivity (PSR sort gate): low polyreactivity

HVRLQESVGGLVQAGGSLRQSCAASGAISPYYDMGWYRLAPGKEREFVASIAHGGTTYYADSVKGRFTTSRDNAKNTVYLQMNSLKPEDTAVYYCAVAYDVWHSHIYRGQGTQVTVSS
polyreactivity (PSR sort gate): high polyreactivity

QVQLVESGGGLVQAGGSLRLSCAASGRIFVHYAMGWYRQAPGKERELVAAITSGSSTNYADSVKGRFTISRDNAKNTVYLQMNSLKPEDTAVYYCAADYSVHLVRDRWFDYWGQGTQVTVSS
polyreactivity (PSR sort gate): low polyreactivity

QVQLQESGGGLVQAGGSLRLSCEASGSIYYPRTMGRSRQAPGKELEFVAGSGVGGTTYYADSVKGRFTISRDNAKNTVYLQMNSLIPEDDAVYYCAVAAYYDKYYVYWGQGTQVTVSC
polyreactivity (PSR sort gate): low polyreactivity

QVQLVESGGGLVQAGGSLRLSCDASGFTFVSYAMGSYRQAPGKERELVAVISYRAGSTYYADSVKGRFTISRDNAKNTVYLPMYSLKPEDTAVYYCATDRYSRRNDYWGQGTQVTVSS
polyreactivity (PSR sort gate): high polyreactivity

QVQLVESGGGLVQAGGSLRLSCAASGRIFKSYAMGWYRQAPGKEMELVAAINWSGGSTYYADSVKGRFTISRDNAKNTVYLQMNSLKPEDTAVYYCNALYAVRSYDSWGQGTQVTVSS
polyreactivity (PSR sort gate): high polyreactivity

QVQLVESGGGLVQAGGSLRLSCAASGRIFWYYAMGGYRQAPGKEREFVATINTSGGSTYYADSLKGRFTISRDYARSTVCLQMNSLTPEDTAVYYCYAACRYYRTEYYSWGQGTQVTVSS
polyreactivity (PSR sort gate): low polyreactivity
